Results taken from the supplement of paper PMC10567573.
± gives the standard deviation.

Assay: protein stability index of a GFP-peptide fusion (GPS, HEK-293T) (PSI 1-6); higher = more stable
Conditions: c terminus: a fixed tail appended
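Note: 24-mer peptide tiles fused after GFP, lentivirally expressed, FACS-sorted into six equal bins by GFP/DsRed ratio, decoded by Illumina sequencing, PSI is the read-weighted mean bin number.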

| Sequence | protein stability index (treatment: DMSO) | protein stability index (treatment: MLN4924 1 uM, 8 h) |
| --- | --- | --- |
| FLFVLARVPAGIFKHTLSISRALL [MFSD9] | 3.29 ± 0.23 | 2.81 ± 0.11 |
| SAQAPPDSISLHQPCNPPAPAGDK [DMRTC1] | 5.38 ± 0.13 | 5.28 ± 0.28 |
| FLVAEWNEPSINFYKRRGASDLSS [SAT1] | 2.32 ± 0.28 | 2.43 ± 0.45 |
| PKDIMTNTHAKSILNSMNSLRKSN [KLHL12] | 3.48 ± 0.099 | 3.73 ± 0.34 |
| YATLDLNAVKYVSNIKFCSFHPLQ [PDS5B] | 2.31 ± 0.68 | 2.18 ± 0.35 |
| LTVVCAAGAEPLPRNGDQWHEIRQ [WEE1] | 2.55 ± 0.34 | 2.49 ± 0.4 |
| EGPSVVKRPAPRTAPRQEKHERTH [SPRY1] | 5.17 ± 0.29 | 5.13 ± 0.2 |
| VSNMSGPSGEEEAKVGPGLPDGCQ [CBY2] | 5.46 ± 0.12 | 5.16 ± 0.16 |
| PQEAAGAQGRAGAPVPEPPKEEQQ [EPB41L3] | 5.2 ± 0.45 | 5.75 ± 0.26 |
| ILIIRFEMPYNIWCDGCKNHIGMG [YJU2B] | 3.24 ± 0.36 | 2.96 ± 0.71 |
| GSRMMAVAALVVNFSQPVAGRPSL [NLN] | 3.1 ± 0.68 | 2.56 ± 1.2 |
| LGDTQFCFRFRQSSGRRVSLHCLL [DENND6A] | 2.89 ± 0.48 | 2.65 ± 0.59 |
| LTNSEYRSEQSVKLRRQVIQVVLN [ZER1] | 2.51 ± 0.23 | 2.44 ± 0.48 |
| LSTDMVHAASDPSSSSGRLSEPDP [SMOC2] | 5.29 ± 0.24 | 5.38 ± 0.15 |
| AGRRMFPSYKVKVTGLNPKTKYIL [TBX5] | 2.12 ± 0.4 | 2.2 ± 0.29 |
| ESTFKNTEISFILGQEFDEVTADD [FABP4] | 4.74 ± 0.13 | 5.03 ± 0.18 |

| Sequence | protein stability index (treatment: DMSO) | protein stability index (treatment: MLN4924 1 uM, 8 h) |
| --- | --- | --- |
| YHIYVALEEEIERNKESPVFAPVY [HMOX1] | 2.32 ± 0.28 | 3.03 ± 0.51 |
| MGSTESSEGRRVSFGVDEEERVRV [CHCHD6] | 5.15 ± 0.29 | 5.22 ± 0.13 |
| NRFRVEISFHFEVTNHNIRLFEDV [TRIM43] | 2.73 ± 0.5 | 2.84 ± 0.22 |
| DSTWLLLRRIRAESGTKGLFAGFL [SLC25A39] | 2.63 ± 0.67 | 2.58 ± 0.53 |
| CEGRRTRFRSCNTEDCPTGSALTF [ADAMTS4] | 3.42 ± 0.18 | 3.29 ± 0.092 |
| QMLWELVLLGEPLVVMAPSPSESS [DENND6A] | 2.33 ± 0.72 | 2.17 ± 0.49 |
| VELPMNSSNGNDNGNGKNGGLEHV [BNIP3L] | 5.25 ± 0.17 | 5.23 ± 0.22 |
| KGGNLRDKLDGNELDLSLSDLNEV [LRRC59] | 4.86 ± 0.075 | 5.11 ± 0.17 |
| FTMFLNLFGEKLSGTDAEETILNA [MYL5] | 2.12 ± 0.37 | 2.21 ± 0.2 |
| SKLDTTKALNLLPANTQINDIRIF [VPS39] | 2.55 ± 0.33 | 2.66 ± 0.31 |
| PEEVKSLDSNGAGEKSENNSSNSD [BCL2L13] | 5.84 ± 0.15 | 5.6 ± 0.23 |
| NTEERQKRQVTHFQFLSWPDYGVP [PTPN9] | 3.17 ± 0.57 | 3.042 ± 0.028 |
| ALQTLLTLIVVDASGLGLEITTQF [SLC19A2] | 3 ± 0.39 | 3.31 ± 0.56 |
| LAGQKDELQLSDLLKQGYNKTLLR [PKD2L1] | 3.24 ± 0.23 | 3.39 ± 0.4 |
| MQNLNDRLASYLDKVRALEEANAD [KRT15] | 4.22 ± 0.32 | 4.37 ± 0.23 |
| AEKSVAPSNTGSRTTSVRCRGIPR [NEK8] | 4.63 ± 0.16 | 4.7 ± 0.26 |
